Results reported in patent publication US20180016313A1 (MEDPACTO, published 2018).

Key:
[1] = target: T1, mouse LRP6 (mLRP6) protein (Cat. No. 2960-LR-025, R&D, USA) (mouse, UniProt O88572 20-1370, limits assumed); assay: ELISA, 100 ng mLRP6 coated, DKK2 protein diluted serially from 100 nM, KD calculated from absorbance at 490 nm
T1 construct: Coated on the ELISA plate
T1 sequence (looked up): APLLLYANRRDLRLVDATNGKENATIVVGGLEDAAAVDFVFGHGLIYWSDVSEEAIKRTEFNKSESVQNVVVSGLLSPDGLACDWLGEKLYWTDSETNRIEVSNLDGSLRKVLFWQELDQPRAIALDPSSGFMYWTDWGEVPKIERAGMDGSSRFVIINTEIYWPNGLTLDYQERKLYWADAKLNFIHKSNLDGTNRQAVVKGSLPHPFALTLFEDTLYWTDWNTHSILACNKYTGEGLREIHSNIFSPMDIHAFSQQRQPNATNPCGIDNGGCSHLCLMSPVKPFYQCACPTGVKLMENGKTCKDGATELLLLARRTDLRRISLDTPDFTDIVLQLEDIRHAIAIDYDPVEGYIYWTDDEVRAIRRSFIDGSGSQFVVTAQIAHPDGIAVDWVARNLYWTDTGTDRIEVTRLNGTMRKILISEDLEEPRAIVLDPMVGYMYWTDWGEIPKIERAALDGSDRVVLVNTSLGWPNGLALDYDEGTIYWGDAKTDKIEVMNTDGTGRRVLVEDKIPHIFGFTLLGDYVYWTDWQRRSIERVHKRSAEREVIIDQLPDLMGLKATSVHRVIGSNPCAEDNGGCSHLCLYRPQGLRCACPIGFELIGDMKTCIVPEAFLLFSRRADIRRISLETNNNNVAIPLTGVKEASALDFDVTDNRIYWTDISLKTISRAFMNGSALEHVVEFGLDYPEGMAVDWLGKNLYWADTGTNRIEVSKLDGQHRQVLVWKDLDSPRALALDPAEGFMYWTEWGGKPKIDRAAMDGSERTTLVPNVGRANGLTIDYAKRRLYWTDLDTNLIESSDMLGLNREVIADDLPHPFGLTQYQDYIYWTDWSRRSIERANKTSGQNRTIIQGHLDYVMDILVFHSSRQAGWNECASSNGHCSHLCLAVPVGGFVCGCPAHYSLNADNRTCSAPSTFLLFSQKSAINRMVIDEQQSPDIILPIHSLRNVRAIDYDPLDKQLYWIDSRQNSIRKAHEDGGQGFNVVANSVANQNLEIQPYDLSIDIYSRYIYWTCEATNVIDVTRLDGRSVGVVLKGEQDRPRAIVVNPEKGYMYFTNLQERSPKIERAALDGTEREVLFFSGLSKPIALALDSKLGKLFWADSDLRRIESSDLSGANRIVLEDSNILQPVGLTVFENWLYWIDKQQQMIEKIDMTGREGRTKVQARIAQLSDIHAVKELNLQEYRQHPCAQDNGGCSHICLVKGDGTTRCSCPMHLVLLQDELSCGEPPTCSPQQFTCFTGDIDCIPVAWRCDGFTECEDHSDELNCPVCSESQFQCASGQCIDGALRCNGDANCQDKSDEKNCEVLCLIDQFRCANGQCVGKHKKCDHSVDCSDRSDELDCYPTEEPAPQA
Protocol: (§1) Each purified DKK2 protein and 100 μl of 1% (w/v) skim milk/1×PBS were mixed to prepare 100 nM of DKK2 protein, and 100 nM of DKK2 protein was subjected to ¼ serial dilution. The diluted protein was applied to the prepared ELISA plate, and incubated at room temperature for about 2 hours. Thereafter, the plate was washed with 200 μl of PBST five times.
(§2) 2 μl of anti-Human Fc-HRP (Cat. No. 31413, Thermo, USA) antibody was mixed with 4 ml of PBS containing 1% (w/v) skim milk, and 200 μl of this mixture was added to each well of ELISA plate and incubated at room temperature for 1 hour. Thereafter, the secondary antibody of the ELISA plate was removed, and the plate was washed with 200 of PBS five times. 10 μl of H₂O₂ solution (Cat. No. H1009-100ML, Sigma, USA), 10 ml of PC buffer (5.1 g of citric acid monohydrate, 7.3 g of sodium phosphate/L (pH 5.0)), and one tablet of OPD (Cat. No. P8787-100TAB, Sigma, USA) were mixed to prepare a mixture, and a total volume of 100 μl of the mixture was added to each well. Incubation was performed at room temperature in the dark for 10 minutes, followed by color development. Thereafter, 50 μl of a stop buffer was added to each well to terminate the color development. Absorbance at 490 nm was measured using an ELISA reader, and a dissociation constant KD value (M) was calculated from the measured absorbance. […]

[2] = target: T2, human LRP6 (hLRP6) protein (Cat. No. 1505-LR-025, R&D, USA) (human, UniProt O75581 20-1368, limits assumed); assay: ELISA, 100 ng hLRP6 coated, DKK2 protein diluted serially from 100 nM, KD calculated from absorbance at 490 nm
T2 construct: Coated on the ELISA plate
T2 sequence (looked up): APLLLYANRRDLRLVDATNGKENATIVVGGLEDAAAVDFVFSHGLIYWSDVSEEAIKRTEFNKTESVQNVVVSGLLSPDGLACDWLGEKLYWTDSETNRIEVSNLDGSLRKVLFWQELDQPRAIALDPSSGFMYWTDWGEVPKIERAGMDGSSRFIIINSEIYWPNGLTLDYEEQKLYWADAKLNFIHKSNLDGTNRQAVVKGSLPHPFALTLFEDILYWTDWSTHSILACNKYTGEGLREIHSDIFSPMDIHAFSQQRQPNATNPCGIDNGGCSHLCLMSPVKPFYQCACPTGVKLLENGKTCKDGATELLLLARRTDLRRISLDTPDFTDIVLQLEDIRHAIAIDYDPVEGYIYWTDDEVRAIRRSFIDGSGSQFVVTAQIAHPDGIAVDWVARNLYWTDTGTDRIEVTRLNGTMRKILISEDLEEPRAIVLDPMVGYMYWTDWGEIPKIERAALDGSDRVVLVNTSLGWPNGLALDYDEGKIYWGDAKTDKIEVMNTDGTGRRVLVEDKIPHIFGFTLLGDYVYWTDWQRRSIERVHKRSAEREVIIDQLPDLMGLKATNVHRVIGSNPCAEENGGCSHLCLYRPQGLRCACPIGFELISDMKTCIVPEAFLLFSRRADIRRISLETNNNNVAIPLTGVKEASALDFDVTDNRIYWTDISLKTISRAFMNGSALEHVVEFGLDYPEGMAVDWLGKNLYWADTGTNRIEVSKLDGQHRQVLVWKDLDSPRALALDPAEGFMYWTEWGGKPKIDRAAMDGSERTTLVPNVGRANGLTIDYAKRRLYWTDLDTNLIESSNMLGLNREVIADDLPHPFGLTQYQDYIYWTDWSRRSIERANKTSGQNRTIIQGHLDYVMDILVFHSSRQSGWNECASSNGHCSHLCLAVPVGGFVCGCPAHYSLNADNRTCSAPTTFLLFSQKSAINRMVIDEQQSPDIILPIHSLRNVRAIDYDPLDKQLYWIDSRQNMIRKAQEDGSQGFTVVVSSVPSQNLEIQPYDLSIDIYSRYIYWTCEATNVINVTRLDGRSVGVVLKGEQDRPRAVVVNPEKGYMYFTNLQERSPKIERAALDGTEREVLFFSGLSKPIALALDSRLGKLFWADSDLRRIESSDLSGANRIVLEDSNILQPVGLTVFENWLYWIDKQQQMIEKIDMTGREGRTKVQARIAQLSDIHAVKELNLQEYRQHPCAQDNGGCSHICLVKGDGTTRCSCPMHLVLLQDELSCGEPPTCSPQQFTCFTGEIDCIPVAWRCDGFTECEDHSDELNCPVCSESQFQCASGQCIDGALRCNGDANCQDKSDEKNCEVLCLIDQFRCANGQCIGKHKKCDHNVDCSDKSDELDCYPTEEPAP
Protocol: as §1, §2

B1: wild-type DKK2 (Cat. No. 6628-DK-010, R&D, USA) (ligand)
chain: KLNSIKSSLGGETPGQAANRSAGMYQGLAFGGSKKGKNLGQAYPCSSDKECEVGRYCHSPHQGSSACMVCRRKKKRCHRDGMCCPSTRCNNGICIPVTESILTPHIPALDGTRHRDRNHGHYSNHDLGWQNLGRPHTKMSHIKGHEGDPCLRSSDCIEGFCCARHFWTKICKPVLHQGEVCTKQRKKGSHGLEIFQRCDCAKGLSCKVWKDATYSSKARLHVCQKI
notes: Bought protein; also called wild-type DKK2 protein
B1 showed a Kd [1] of 270 nM and a Kd [2] of 90 nM.
